Values quoted from earlier work as cited in publication PMC4192513, “A Novel Protein-Protein Interaction in the RES (REtention and Splicing) Complex” (The Journal of Biological Chemistry, 2014).
“Also recorded” adds a separate entry of the source.

System: RES complex (Snu17p, Bud13p, Pml1p)
Settings: ref [4]
Description: Previous biochemical analyses have shown that Snu17p binds Bud13p directly ([4], [6]). Based on a mutational analysis of the invariant Bud13p Trp^232 residue ([6]), the interaction of Bud13p with the Snu17p RRM has been proposed to resemble a typical UHM-ULM interaction. […] The structural findings are consistent with our initial mutagenesis analysis, which was guided by the recognition features described for the UHM family.

B1: W232A: single W232A mutant of Bud13p, from ref [4] (protein, UniProt P46947 1-266, looked up, variant W232A)
Pre-mRNA-splicing factor CWC26: MALHQYLSETYGPTKPKNKTKKKKKESKSDANSDKTSLIVKERLSTLQQEQEKSGVASFSKFDKQKSKNIWKNLETNELSHAITHPSASSITGNESKNDLKEIRAQEPLVTVADKSKTRKTIYRDAQGHKIQEDSKIDDSSFSRSKYEDEKAAEREQYLKNLNMGDVQKLGINVDAHDKKKNQTASSLTIEDPAITFTHDKERTVKTSLLGRKLYDKPAPENRFAIMPGSRADGVHRSNGFEEKWFAKQNEINEKKVQSYTLQEDY
interaction with Snu17p / complex formation of W232A mutant: did not abolish its interaction with Snu17p; also recorded: did not prevent complex formation
